Test results taken from PMC13462943.

What was measured:
[1] = biological target: T1, N-terminal histone H3 peptide (amino acid residues 1-20), P68431; assay: native mass spectrometry; conditions: chain shown with the change, protein and substrate concentrations 5 µM
[2] = biological target: T2, G9a methyltransferase domain (aa residues 913-1193), Del 1163-4, Q96KQ7-1; assay: native mass spectrometry (nESI-MS); conditions: chain shown with the change;; read off a plot
T2 chain: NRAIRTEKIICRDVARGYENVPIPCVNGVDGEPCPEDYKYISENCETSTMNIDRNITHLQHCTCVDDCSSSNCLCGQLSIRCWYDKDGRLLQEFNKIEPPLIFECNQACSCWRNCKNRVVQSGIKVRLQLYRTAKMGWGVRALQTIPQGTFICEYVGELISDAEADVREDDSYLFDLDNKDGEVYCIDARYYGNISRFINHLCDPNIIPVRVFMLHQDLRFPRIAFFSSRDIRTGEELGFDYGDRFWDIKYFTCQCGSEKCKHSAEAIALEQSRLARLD

[3] = biological target: T1, N-terminal histone H3 peptide (amino …); assay: differential scanning fluorimetry; conditions: chain shown with the change; 500 µM histone H3 peptide; parent: est. 4.4; read off a plot

other: relative abundance, 2x peptide bound ([1]; parent: 24): < 1
other: relative abundance, free protein ([1]; parent: 30): 88
other: relative abundance, 1x peptide bound ([1]; parent: 46): 11
ratio to parent [2]: 0.58
other: ΔTm upon substrate addition [3]: 2.3 °C
B1: G9a methyltransferase domain (aa residues 913-1193), wild type, Q96KQ7-1 S1163del; K1164del (protein)
chain: T2 chain
